Results taken from patent US20160317649A1, “EPITOPES OF HERPES SIMPLEX VIRUS” (priority 2007, published 2016).
Read-outs that look alike come from different tables or passages of the source.

Tests used:
Settings in all cases: modification not given
HLA DRB1*0101 (human) [1] = target: HLA DRB1*0101 (human)
HLA DRB1*0701 (human) [2] = target: HLA DRB1*0701 (human)
HLA DRB1*1302 (human) = target: HLA DRB1*1302 (human)
HLA DRB1*0101 (human) [3] = target: HLA DRB1*0101 (human); remark: listed apart in the source
HLA DRB1*0701 (human) [4] = target: HLA DRB1*0701 (human); remark: listed apart in the source
HLA DRB1*0101 (human) [5] = target: HLA DRB1*0101 (human); remark: listed apart in the source

## AYQQGVTVDSIG [24.2]
HLA DRB1*0101 (human) [1]
  IC50: 471 nM
HLA DRB1*0701 (human) [2]
  IC50: 2720 nM

## APAAPANPGLII [34.2]
HLA DRB1*1302 (human)
  IC50: 642 nM
HLA DRB1*0101 (human) [3]
  IC50: 1270 nM

## YQQGVTVDSIGM [24.3]
HLA DRB1*0701 (human) [4]
  IC50: 389 nM

## HAPAAPANPGLI [34.1]
HLA DRB1*0101 (human) [5]
  IC50: 3550 nM
